Source: publication PMC6161111, “Design, Synthesis, In Vitro, and Initial In Vivo Evaluation of Heterobivalent Peptidic Ligands Targeting Both NPY(Y1)- and GRP-Receptors—An Improvement for Breast Cancer Imaging?” (Pharmaceuticals, 2018)
Like-named read-outs stand apart in the source and are kept apart here.

What was measured:
[1] = Determination of radiotracer lipophilicity (logD, phosphate buffer/1-octanol); format: physicochemical; conditions: phosphate buffer (0.05 M, pH 7.4) / 1-octanol, six independent experiments
Method: Determination of radiotracer lipophilicity. The heterobivalent ligands (22–26) as well as the monomeric reference compounds (27 and 28) were radiolabeled with ^68Ga as described before and 2 µL of the product solution (~65 pmol of the respective radioligand) were added to a mixture of phosphate buffer (0.05 M, pH 7.4, 800 µL) and 1-octanol (800 µL) and incubated for 5 min at ambient temperature under vigorous shaking. Both phases were separated by centrifugation and 100 µL of each phase were measured for radioactivity in a gamma-counter. […] (cpm = counts per minute), cpmw = activity in the aqueous phase [cpm]. These experiments were performed six times independently.

[2] = Ex vivo biodistribution in T-47D tumor-bearing mice; conditions: female, Fox Chase SCID (CB17/Icr-Prkdc^scid/IcrIcoCrl), mouse, in vivo, iv, total radioactivity, ex vivo biodistribution at 130 min p.i.
Method: (§1) In vivo experiments. All animal experiments were performed in compliance with the German animal protection laws and protocols of the local committee (Regierungspräsidium Karlsruhe, approval number: 35-9185.81/G-206/15). 20, six week old female immunodeficient Fox Chase SCID (CB17/Icr-Prkdc^scid/IcrIcoCrl) mice with an average weight of 20 g were subcutaneously implanted with 17β-estradiol pellets (0.36 mg/60 days). 4 days later, the tumors were induced by subcutaneous inoculation of 5 × 10^6 T-47D cells into the left flank of the […]. After induction, the tumors were allowed to grow for 8–10 weeks and reached a diameter of about 0.5 cm. For imaging, the animals were anaesthetized with isoflurane and injected with 5.5–8.0 MBq of the respective radioligand ([^68Ga]24, [^68Ga]24a or [^68Ga]24b) into the lateral tail vein. Dynamic PET images were acquired over 90 min and CT images were obtained within further 30 min. After the end of the diagnostic scan, the animals were sacrificed, the organs were collected and measured in a gamma-counter.

[3] = tested on: T-47D tumor-bearing mice; assay: as above; conditions: 130 min p.i.
Method: as §1

[4] = tested on: T-47D cells; assay: In vitro cell uptake (internalization) study in T-47D cells; format: cell-based, human; conditions: after 4 h, % of total added activity
Method: Cell culture. All cell lines were grown in suitable culture medium at 37 °C in a humidified CO2 (5%) atmosphere. The human breast cancer cell lines T-47D, MDA-MB-231 and MCF-7 were grown in Dulbecco’s Modified Eagle Medium (DMEM), supplemented with 10% (v/v) fetal calf serum (FCS) and 1% (v/v) L-Glutamine. For a high expression of the NPY(Y1) receptor on T-47D cells, the medium for this cell line was further supplemented with 0.15% (w/v) β-estradiol. The BT-474 and PC-3 cell lines were grown in RPMI-1640 medium, also supplemented with 10% (v/v) fetal calf serum (FCS) and 1% (v/v) L-Glutamine.
Internalization studies. Cells (T-47D, MDA-MB-231, MCF-7, BT-474 and PC-3, 1.5 × 10^6 cells per well) were seeded into 6-well plates and incubated overnight at 37 °C in a humidified CO2 (5%) atmosphere. The next day, the medium was removed and the cells were washed twice with the respective medium without supplements (ice-cold, 1 mL) and incubated with 3.7–4.0 kBq (0.37–4.0 pmol) of the respective ^68Ga-radiolabeled ligand [^68Ga]22−[^68Ga]26, [^68Ga]27 or [^68Ga]28 (in 1.5 mL medium, containing 0.5% (w/v) BSA) for defined time-points of 1, 2, 3 or 4 h at 37 °C in a humidified CO2 (5%) atmosphere. A 1000-fold excess of the respective peptide (3 or 4) was used for blocking to determine the non-specific cell uptake. At each time point, the medium was removed and the cells were washed twice with the respective medium without supplements (ice-cold, 1 mL). Cells were treated twice with 1 mL glycine buffer (ice-cold, 50 mM glycine, 100 mM NaCl, pH 2.8) for 5 min at room temperature, followed by 2 mL NaOH solution (1 M) for 10 min at 37 °C. The supernatants were collected and the radioactivity measured in a gamma counter. The internalized and surface bound activity was expressed as percentage of measured to total added activity. Each data point was generated thrice in triplicates.

[5] = tested on: T-47D tumor; assay: Small animal PET/CT imaging in T-47D tumor-bearing mice; format: in vivo; conditions: PET imaging, i.v. 5.5-8.0 MBq, n = 4
Method: as §1, with “For imaging, the animals were anaesthetized with isoflurane and injected with 5.5–8.0 MBq of the respective radioligand ([^68Ga]24, [^68Ga]24a or [^68Ga]24b) into the lateral tail vein. Dynamic PET images were acquired over 90 min and CT images were obtained within further 30 min.” left out
The dynamic PET images were reconstructed using the Albira Suite Reconstructor (Bruker) with an iterative dynamic reconstruction with 12 iterations using an 2D-Maximum-Likelihood Expectation-Maximization (MLEM) algorithm and a cubic image voxel size of 0.5 mm after scatter and decay correction. […] The reconstructed PET data were manually fused with the CT images using PMOD 3.6.1.1. and analyzed. Volumes of interest (VOIs) were defined for the quantification of tracer accumulation in heart, liver, kidneys, tumor, and muscle. The results for each VOI were calculated as SUV (kBq/cm^3) averaged for each time frame.

[6] = Stability of the 68Ga-labeled ligands in human serum; format: in vitro ADME; conditions: after 90 min incubation at 37 °C, radio-HPLC
Method: Determination of the stability of the ligands in human serum. The heterobivalent ligands (22–26) as well as the monomeric reference compounds (27 and 28) were radiolabeled with ^68Ga as described before and 125 µL of the product solution were added to 500 µL of human serum and incubated at 37 °C. At defined time-points of 5, 15, 30, 60 and 90 min, aliquots of 75 µL of the mixture were added to 75 µL of ethanol and the precipitation of serum proteins was enhanced by ice-cooling for 2 min. After centrifugation, supernatant and precipitate were measured for radioactivity and the supernatant was analyzed by analytical radio-HPLC. These experiments were performed thrice.

CCCC[C@H](NC(=O)[C@H](CCCNC(=N)N)NC(=O)[C@H](Cc1c[nH]c2ccccc12)NC(=O)[C@H](CCCCNC(=O)CON=Cc1ccc(C(=O)NCCOCCOCCOCCOCCC(=O)NCCCN(CCCNC(=O)CCOCCOCCOCCOCCNC(=O)c2ccc(C=NOCC(=O)NCCOCCOCCOCCOCCC(=O)N[C@@H](CCC(N)=O)C(=O)N[C@@H](Cc3c[nH]c4ccccc34)C(=O)N[C@@H](C)C(=O)N[C@H](C(=O)NCC(=O)N[C@@H](Cc3c[nH]cn3)C(=O)N[C@@H](CC(C)C)C(=O)N[C@@H](CCSC)C(N)=O)C(C)C)cc2)CC(=O)NCCOCCOCCOCCOCCC(=O)N[C@@H](CCCCNC(=O)CCC(C(=O)O)N2CCN(CC(=O)O)CCN(CC(=O)O)CC2)C(N)=O)cc1)NC(=O)[C@@H]1CCCN1C(=O)[C@H](CC(N)=O)NC(=O)[C@@H](N)[C@@H](C)CC)C(=O)N[C@@H](CCCNC(=N)N)C(=O)N[C@@H](Cc1ccc(O)cc1)C(N)=O (stereo partly drawn) [[^68Ga]24, metal not drawn]
logD [1]: -1.67 ± 0.086 | tissue to tissue ratio at 130 min ([2]; read-out: tumor-to-blood ratio (T / B)): 2.72 ± 0.43 | tissue to tissue ratio at 130 min ([2]; read-out: tumor-to-muscle ratio (T / M)): 11.8 ± 1.83 | adrenal glands uptake ([3]; adrenal glands): 3.57 ± 2.18 ID/g in % | blood uptake ([3]; blood): 1.13 ± 0.77 ID/g in % | bone uptake ([3]; bone): 0.26 ± 0.14 ID/g in % | brain uptake ([3]; brain): 0.11 ± 0.14 ID/g in % | heart uptake ([3]; heart): 0.52 ± 0.38 ID/g in % | kidneys uptake ([3]; kidneys): 34.79 ± 11.03 ID/g in % | large intestines uptake ([3]; large intestines): 1.80 ± 0.64 ID/g in % | liver uptake ([3]; liver): 10.02 ± 1.54 ID/g in % | lung uptake ([3]; lung): 0.62 ± 0.17 ID/g in % | muscle uptake ([3]; muscle): 0.26 ± 0.18 ID/g in % | pancreas uptake ([3]; pancreas): 10.54 ± 3.13 ID/g in % | small intestines uptake ([3]; small intestines): 1.49 ± 0.36 ID/g in % | spleen uptake ([3]; spleen): 1.32 ± 0.33 ID/g in % | stomach uptake ([3]; stomach): 1.47 ± 0.44 ID/g in % | tail uptake ([3]; tail): 1.30 ± 1.21 ID/g in % | tumor uptake ([3]; tumor): 3.07 ± 0.33 ID/g in % | specific cell uptake [4]: 50.1 ± 2.4% | tumor activity concentration at 85 min [5]: 122.03 ± 16.27 kBq/cm^3 | degradation in human serum [6]: no observable fragmentation

CCCC[C@H](NC(=O)[C@H](CCCNC(=N)N)NC(=O)[C@H](Cc1c[nH]c2ccccc12)NC(=O)[C@H](CCCCNC(=O)CON=Cc1ccc(C(=O)NC2CCN(CC(=O)NC3CCN(CC(=O)NCCCN(CCCNC(=O)CN4CCC(NC(=O)CN5CCC(NC(=O)c6ccc(C=NOCC(=O)NCCOCCOCCOCCOCCC(=O)N[C@@H](CCC(N)=O)C(=O)N[C@@H](Cc7c[nH]c8ccccc78)C(=O)N[C@@H](C)C(=O)N[C@H](C(=O)NCC(=O)N[C@@H](Cc7c[nH]cn7)C(=O)N[C@@H](CC(C)C)C(=O)N[C@@H](CCSC)C(N)=O)C(C)C)cc6)CC5)CC4)CC(=O)NCCOCCOCCOCCOCCC(=O)N[C@@H](CCCCNC(=O)CCC(C(=O)O)N4CCN(CC(=O)O)CCN(CC(=O)O)CC4)C(N)=O)CC3)CC2)cc1)NC(=O)[C@@H]1CCCN1C(=O)[C@H](CC(N)=O)NC(=O)[C@@H](N)[C@@H](C)CC)C(=O)N[C@@H](CCCNC(=N)N)C(=O)N[C@@H](Cc1ccc(O)cc1)C(N)=O (stereo partly drawn) [[^68Ga]26, metal not drawn]
logD [1]: -1.52 ± 0.089 | specific cell uptake [4]: 46.4 ± 2.4%
